In article PMC6087011, “The mechanism by which a distinguishing arabinofuranosidase can cope with internal di-substitutions in arabinoxylans” (Biotechnology for Biofuels, 2018):

What was measured:
[1] = test system: O=[N+]([O-])c1ccc(O[C@@H]2O[C@@H](CO)[C@H](O)[C@H]2O)cc1; assay: purified protein; details: pH 5.5 McIlvaine buffer, 50 °C
[2] = molecular target: XacAbf51, GH51 α-L-arabinofuranosidase from Xanthomonas axonopodis pv. citri (X. axonopodis pv. citri str. 306); assay: AUC
[3] = molecular target: XacAbf51, GH51 α-L-arabinofuranosidase from Xanthomonas axonopodis pv. citri (X. axonopodis pv. citri str. 306); assay: SAXS
[4] = molecular target: XacAbf51, GH51 α-L-arabinofuranosidase from Xanthomonas axonopodis pv. citri (X. axonopodis pv. citri str. 306); assay: […]; 20 °C; […], pH 7.5; […]
[5] = substrate: O=[N+]([O-])c1ccc(O[C@@H]2O[C@@H](CO)[C@H](O)[C@H]2O)cc1; assay: colorimetric p-nitrophenolate release, A400; type: biochemical, Thermobacillus xylanilyticus; details: pH 5.5 McIlvaine buffer, 50 °C
Description: colorimetric p-nitrophenolate release, A400 on TxAbfD3

In the case of “XacAbf51 (Xanthomonas citri subsp. citri 306)”, the Km [1] is reported as 190 ± 10 µM, the kcat [1] is reported as 56.4 ± 0.8 s⁻¹ and the kcat/Km [1] is reported as 300000 M⁻¹ s⁻¹.

Work on “XacAbf51, GH51 α-L-arabinofuranosidase from Xanthomonas axonopodis pv. citri (enzyme)” yielded a stoichiometry N [2] of 3, a stoichiometry N [3] of 3 and a stoichiometry N [4] of 3.

B1: TxAbfD3 (Thermobacillus xylanilyticus) (protein)
chain: MNVASRVVVNADRVKGTINRNIYGHFSEHLGRCIYEGLWVGEDSPIPNTNGIRNDVLEALKQMKIPVLRWPGGCFADEYHWKDGVGPREKRKRMVNTHWGGVIENNHFGTHEFMMLCELLGCEPYISGNVGSGTVQEMSEWVEYITFDGESPMANWRRENGREKPWRIKYWGVGNENWGCGGNMRAEYYADLYRQFQTYLRNYGDNKLHKIACGANTADYHWTEVLMKQAAPFMHGLSLHYYTVPGPWEKKGPATGFTTDEWWVTLKKALFMDRLVTKHSAIMDVYDPDKRIDLIVDEWGTWYDVEPGTNPGFLYQQNSIRDALVAGATLHIFHRHCDRVRMANIAQLVNVLQSVILTEGERMLLTPTYHVFNMFKVHQDAELLDTWESVERTGPEGELPKVSVSASRAADGKIHISLCNLDFETGASVDIELRGLNGGVSATGTTLTSGRIDGHNTFDEPERVKPAPFRDFKLEGGHLNASLPPMSVTVLELTAG
Work on B1 yielded a Km [5] of 520 ± 60 µM, a kcat [5] of 154 ± 4.2 s⁻¹ and a kcat/Km [5] of 300000 M⁻¹ s⁻¹.
